This experiment has as its target Full-length cynoIL4Rα on monkey IL4Rα-FlpinCHO cells (cynomolgus monkey). The experiment is described as follows: flow cytometry on monkey IL4Rα-FlpinCHO cells. In general terms: Flow cytometry measures light scatter and fluorescence of single cells or particles in a stream.

Full-length cynoIL4Rα on monkey IL4Rα-FlpinCHO cells (cynomolgus monkey), sequence (A0A2K5 entry or part of it limits assumed): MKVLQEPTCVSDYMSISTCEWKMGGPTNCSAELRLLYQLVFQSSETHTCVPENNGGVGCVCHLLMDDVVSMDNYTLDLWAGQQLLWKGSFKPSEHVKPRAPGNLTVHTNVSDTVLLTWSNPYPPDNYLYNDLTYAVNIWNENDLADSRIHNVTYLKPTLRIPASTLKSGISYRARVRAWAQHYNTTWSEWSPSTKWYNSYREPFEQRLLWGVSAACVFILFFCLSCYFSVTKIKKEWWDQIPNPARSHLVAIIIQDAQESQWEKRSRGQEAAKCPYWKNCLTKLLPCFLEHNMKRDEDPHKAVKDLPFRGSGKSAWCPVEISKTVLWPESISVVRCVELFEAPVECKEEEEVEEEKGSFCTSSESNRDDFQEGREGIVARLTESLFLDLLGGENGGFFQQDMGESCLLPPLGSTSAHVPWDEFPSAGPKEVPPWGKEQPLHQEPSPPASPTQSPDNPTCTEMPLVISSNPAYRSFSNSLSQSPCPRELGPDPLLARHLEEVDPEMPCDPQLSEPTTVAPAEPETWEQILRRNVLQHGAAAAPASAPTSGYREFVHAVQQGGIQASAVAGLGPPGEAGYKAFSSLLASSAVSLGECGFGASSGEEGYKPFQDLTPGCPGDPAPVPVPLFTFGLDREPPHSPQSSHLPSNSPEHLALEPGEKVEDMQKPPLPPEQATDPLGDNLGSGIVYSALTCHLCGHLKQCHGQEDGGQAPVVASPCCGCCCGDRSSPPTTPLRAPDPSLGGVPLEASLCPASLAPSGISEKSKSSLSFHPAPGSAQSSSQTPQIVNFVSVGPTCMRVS

B1: IL4R-CHI-13 (antibody, V domains shown)
VH: EVQLQQSGPVLVKPGASVKMSCKASGYTFTDYYMNWVKQRHGKSLDWIGTINPYNGGTGYNQKFKGKATLTVDKSSSTAYMELNSLTSEDSAVYFCARSLLRRRGAMDYWGQGTSVTVSS
VL: DIVLTQSPASLVVSLGQRATISCRASKSVSTSGYGYIHWYRQKPGQPPKLLIYLVSNLESGVPARFSGSGSGTDFTLNIHPVEEEDAATYYCQHIRELYTFGGGTKLEIK
With B1, the Emax came to 74.

B2: IL4R-CHI-14 (antibody, V domains shown)
VH: EVMLVESGGGLVKPGGSLKLSCAASGFTFSSYAMSWVRQTPEKRLEWVAIISGGGDSTYYPDSVKGRFTISRDNAKNTLYLQMSSLRSEDTALYFCARLHYWYFDFWGTGTTVTVSS
VL: DIQMTQSSSSFSVSLGDRVTITCKASEDLYNRLAWYQQKPGNAPRLLISGATSLETGVPSRFSGSGSGRDYTLIITSLQTEDVATYYCQQYWRNPYTFGGGTKLEIK
As for B2, the Emax amounted to 97.

B3: IL4R-CHI-17 (antibody, V domains shown)
VH: QAYLQQSGAELVRPGASVKMSCKASGYTFTSYNMHWAKQTPRQGLEWIGSIYPGNGDTSYNQKFKGKATLTVDKSSSTAYMQLSSLTSEDSAVYFCARGGRLRRGDWFAYWGQGTLVTVSA
VL: DIQMTQSPASLSASVGETVTITCRASENIYSYLIWYQQKQGKSPQLLVYDAKTLAEGVPSRFSGSGSGSQFSLKINSLQPEDFGTYYCQHHYGTPLTFGGGTKLELK
In turn, B3 had an Emax of 68.

B4: IL4R-CHI-07 (antibody, V domains shown)
VH: QVQLQQSGAELVKPGASVKLSCKASGYTFTEYTIHWVKQRSGQGLEWIGWFYPGRGSIKYNEKFKDKATLTADKSSSTVYMELSRLTSEDSAVYFCTRHEYRGSNYAMDYWGQGTSVTVSS
VL: DVLMTQTPLSLPVSLGDQASISCRSSQSIVHSSGNTYLQWYLQKPGQSPKLLIYKVSNRFSGVPDRFSGSGSGTDFTLKISRVEAEDLGVYYCFQGSHVPPTFGGGTKLEIK
As to B4, the Emax was found to be 58.

B5: IL4R-CHI-04 (antibody, V domains shown)
VH: DVQLQESGPGLVKPSQSLSLTCTVTGYSITSDYAWNWIRQFPGNKLEWMGYISYSGSSSYNPSLKSRISITRDTSKNQFFLQLNSVTTDDTATYYCAGGGLRRRGLFDYWGQGTTLTVSS
VL: QIVLSQSPAILSASPGEKVTMTCRATSSVTYMHWYQQKPGSSPKPWIYATSNLASGVPARFSGSGSGTSYSLTISRVEAEDTATYYCQQWSSIPLTFGAGTKLELK
Turning to B5, the Emax was determined as 82.
